Test results published in patent publication US12065505B2, “Antibodies and antigen binding peptides for factor XIa inhibitors and uses thereof” (Bristol-Myers Squibb Company, priority 2021, dated 2024).
Where two headings read alike, the source gives them in different places.

What was measured:
[1] = system: rabbit plasma clotting time (aPTT); assay: In vivo reversal of Compound A anticoagulant effect by Fab, rabbit plasma aPTT; details: Compound A 1 mg/kg IV, mean of 3 animals
Description: In vivo experiments were conducted in accordance with the regulations of the Animal Care and Use Committee of the Bristol-Myers Squibb Company. Rabbits (male New Zealand White, 2 to 4 kg) were instrumented with indwelling catheters in the central ear artery for blood sampling and marginal ear vein for substance administration. Compound A was administered as a constant intravenous infusion at a dose of 1.0 mg/kg over 10 minutes. Beginning 20 minutes after the Compound A infusion was complete, the antibody Fab fragment 26D5-75616-348-F10-Fab-SHORT was administered as a constant intravenous infusion at a dose of 160 mg/kg over 10 minutes. […]
The anticoagulant effects of Compound A were measured in activated partial thromboplastin time (aPTT). The aPTT was determined using ACTIN® FS (Siemens/Dade-Behring) following the directions in the package insert. […] The clotting time was the time in seconds from the moment calcium chloride was added until a clot was detected. […]

[2] = Competitive TR-FRET assay, mAbs (T0 and T24); assay type: binding; details: 37° C.; difference between T0 and T24 IC50s; IgG1f mAb format
Description: A competitive TR-FRET (time-resolved fluorescence resonance energy transfer) assay was developed to rank-order the dissociation of α-Compound A mAbs from Compound A as equilibrium is reached at 37° C. The assay buffer was HBS-N (10 mM HEPES, 150 mM NaCl, pH 7.4; GE Healthcare), 0.1% (w/v) BSA (bovine serum albumin; Sigma), 2% DMSO (dimethyl sulfoxide; Sigma). All reagents were prepared in assay buffer and dispensed in equal volumes into white 384 microplates with final volume of 20 μl per well at the following final concentrations: 4 nM COMPOUND 5, the biotinylated analog of COMPOUND 2, a 100 0.1 nM 7-pt titration of human α-Compound A antibodies, 0.1 nM europium-labeled α-mouse IgG (LANCE Eu-W1024; PerkinElmer), 5 nM streptavidin-D2 (Cisbio), and 4 nM mAb 26D5 VH_A10G_Y33A_S53P_M89V_G95A; VK_W32N_H38Q (P1-075621, the second-round optimization parent 26D5-295-B08 formatted with mouse IgG Fc). COMPOUND 5 and α-Compound A antibody titrations were added first to the microplate, and were subjected to an initial incubation at 37° C., 1000 rpm, for one hour to facilitate antibody binding to the compound. After the initial incubation period, the europium α-mouse IgG, streptavidin-D2, and 26D5-mouse IgG (P1-075621) were added sequentially, then the plate was returned to 37° C., 1000 rpm incubation. Microplates were read using a Perkin Elmer EnVision plate reader, and the measured FRET signal was defined as [665 nm]/[620 nm]*10,000. Microplates were read at 30 minutes (T0) and after 24 hour (T24) intervals. […]

[3] = SPR (Biacore) Protein A mAb capture, Compound A injected; details: 37° C., binding to Compound A, for rank ordering only
Summary of the method: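 Parent and affinity-matured IgG1f mAbs were captured at 2 ug/mL on a high-density protein A chip. Compound A was injected at 100–3 nM for 2 min, with at least 450 s dissociation, at 37 °C in PBS pH 7.4 with 0.05% Tween 20 and 2% DMSO. Apparent affinities were used for rank ordering only, because off-rates were too slow to measure.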

Molecule: C[C@@H]1CCC[C@H](n2cnc(-c3cc(Cl)ccc3-n3cc(Cl)nn3)cc2=O)c2cc(ccn2)-c2c(cnn2C(F)F)NC1=O [Compound A, (5R,9S)-9-(4-(5-chloro-2-(4-chloro-1H-1,2,3-triazol-1-yl)phenyl)-6-oxopyrimidin-1(6H)-yl)-21-(difluoromethyl)-5-methyl-21H-3-aza-1(4,2)-pyridina-2(5,4)-pyrazolacyclononaphan-4-one, reference compound]
- rabbit plasma aPTT increase relative to baseline [1]: approximately 2 fold

B1: 26D5-GVR-Q-FT-Fab-LONG mAb: IgG1f mAb called P1-072226, S31 in place of R31, i.e. 26D5-GV-Q (VH SEQ ID NO: 82, VL SEQ ID NO: 99) (antibody, V domains shown)
VH: EVQLVESGGGLIQPGGSLRLSCAASGFTVSSNYMSWVRQAPGKGLEWVSFIYSGGRTYYADSVKGRFTISRDNSKNTLYLQMNSLRAEDTAVYYCARGGFGGGDYWGQGTLVTVSS
VL: DIQMTQSPSSVSASVGDRVTITCRASQGISSWLAWYQQKPGKAPKLLIYAASSLQSGVPSRFSGSGSGTDFTLTISSLQPEDFATYYCQQANSFPLTFGGGTKVEIK
- T0-T24 IC50 shift (Δ) [2]: 63 nM

B2: 26D5-75747-348-D07-mAb: human IgG1f/kappa mAb; VH SEQ ID NO: 57, VL SEQ ID NO: 90 (antibody, V domains shown)
VH: EVQLVESGGGLIQPGGSLRLSCAASGFTVSSNAFSWVRQAPGKGLEWVSYIYSGGRTYYADSVKGRFTISRDNSKNTLYLQMNSLRAEDTAVYYCAAAGFGGGDYWGQGTLVTVSS
VL: DIQMTQSPSSVSASVGDRVTITCRASQGISSQVAWYQQKPGKAPKLLIYYASSLQSGVPSRFSGSGSGTDFTLTISSLQPEDFATYYCQQGNEFPLTFGGGTKVEIK
- Kd ([3]; apparent affinity, listed as 26D5-75747-0348-D07-mAb, read-out: KD): < 0.03 nM
- Kd ([3]; apparent affinity, read-out: KD): < 0.02 nM
- Ka ([3]; apparent): 2e+06 M⁻¹ s⁻¹
- Kd ([3]; apparent): <5e-05 s⁻¹
- T0-T24 IC50 shift (Δ) [2]: 4.3 nM

B3: P1-072963: IgG1f mAb format of first round optimization progeny 26D5-295-B08; VH SEQ ID NO: 60, VL SEQ ID NO: 88 (antibody, V domains shown)
VH: EVQLVESGGGLIQPGGSLRLSCAASGFTVSSNAMSWVRQAPGKGLEWVSFIYPGGRTYYADSVKGRFTISRDNSKNTLYLQMNSLRAEDTAVYYCARAGFGGGDYWGQGTLVTVSS
VL: DIQMTQSPSSVSASVGDRVTITCRASQGISSNLAWYQQKPGKAPKLLIYAASSLQSGVPSRFSGSGSGTDFTLTISSLQPEDFATYYCQQANSFPLTFGGGTKVEIK
- T0-T24 IC50 shift (Δ) [2]: 20.5 nM
